{
  "source": "paper PMC5312616",
  "about": "“A Cholecystokinin B Receptor-Specific DNA Aptamer for Targeting Pancreatic Ductal Adenocarcinoma”",
  "molecules": {"B1": {"name": "AP1153 (66 nt) (ssDNA)", "DNA": "CATGGTGCAGGTGTGGCTGGGATTCATTTGCCGGTGCTGGTGCGTCCGCGGCCGCTAATCCTGTTC"}},
  "key": {"CCKBR (Homo sapiens)": {"molecular_target": "CCKBR (Homo sapiens) (UniProt P32239)", "sequence (P32239 whole entry)": "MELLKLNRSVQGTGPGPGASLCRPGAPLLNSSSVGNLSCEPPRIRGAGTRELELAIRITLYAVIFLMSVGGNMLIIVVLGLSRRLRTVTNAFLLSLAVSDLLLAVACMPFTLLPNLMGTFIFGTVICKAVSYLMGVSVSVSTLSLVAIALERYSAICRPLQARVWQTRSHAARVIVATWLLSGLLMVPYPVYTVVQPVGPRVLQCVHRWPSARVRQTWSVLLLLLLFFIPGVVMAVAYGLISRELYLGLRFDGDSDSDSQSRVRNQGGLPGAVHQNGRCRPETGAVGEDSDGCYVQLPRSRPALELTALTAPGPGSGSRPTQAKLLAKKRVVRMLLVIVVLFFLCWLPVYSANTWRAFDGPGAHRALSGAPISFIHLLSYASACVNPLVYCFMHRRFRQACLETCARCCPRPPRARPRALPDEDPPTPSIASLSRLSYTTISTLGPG", "conditions": "cited from earlier work"}, "[1]": {"molecular_target": "T1, CCKBR N-terminal peptide BR5-21 (human, UniProt P32239 5-21)", "T1 chain": "KLNRSVQGTGPGPGASL", "assay": "not stated in material; Kd assay buffer and method not given in material; SELEX peptide-bead incubation 60 min at 37 C"}},
  "note": "Like-named read-outs stand apart in the source and are kept apart here.",
  "data": [
    {"molecule": "gastrin (from UniProt P01350)", "values": [
      {"measurement": "Kd", "setting": "CCKBR (Homo sapiens)", "result": 1, "unit": "nM"}
    ]},
    {"molecule": "B1", "values": [
      {"measurement": "Kd", "setting": "[1]; Mfold-predicted folded structure", "result": 0.0155, "unit": "nM"}
    ]},
    {"molecule": "CATGGTGCAGGTGTGGCTGGGATTCATTTGCCGGTGCTGGTGCGTCCGC (ssDNA)", "note": "[AP1153 truncated (49 nt)]", "values": [
      {"measurement": "Kd", "setting": "[1]", "result": 0.206, "unit": "nM"}
    ]}
  ]
}
